From publication PMC8467691, “Human Cystathionine γ-Lyase Is Inhibited by S-Nitrosation: A New Crosstalk Mechanism between NO and H2S” (Antioxidants, 2021)

B1: wild-type human cystathionine γ-lyase (enzyme, UniProt P32929 1-405, looked up)
chain: MQEKDASSQGFLPHFQHFATQAIHVGQDPEQWTSRAVVPPISLSTTFKQGAPGQHSGFEYSRSGNPTRNCLEKAVAALDGAKYCLAFASGLAATVTITHLLKAGDQIICMDDVYGGTNRYFRQVASEFGLKISFVDCSKIKLLEAAITPETKLVWIETPTNPTQKVIDIEGCAHIVHKHGDIILVVDNTFMSPYFQRPLALGADISMYSATKYMNGHSDVVMGLVSVNCESLHNRLRFLQNSLGAVPSPIDCYLCNRGLKTLHVRMEKHFKNGMAVAQFLESNPWVEKVIYPGLPSHPQHELVKRQCTGCTGMVTFYIKGTLQHAEIFLKNLKLFTLAESLGGFESLAELPAIMTHASVLKNDRDVLGISDTLIRLSVGLEDEEDLLEDLDQALKAAHPPSGSHS
notes: human cystathionine γ-lyase (CSE), wild type; TEV and 3C protease recognition sites follow the His6 tag; No cleavage of the tag is told; also called CSE; WT CSE; source: recombinant, synthetic gene in pET-28b, purified (HisTrap FF Crude, Superdex 200 SEC)
B2: human cystathionine γ-lyase C70S variant (enzyme, UniProt P32929 1-405, looked up)
chain: MQEKDASSQGFLPHFQHFATQAIHVGQDPEQWTSRAVVPPISLSTTFKQGAPGQHSGFEYSRSGNPTRNSLEKAVAALDGAKYCLAFASGLAATVTITHLLKAGDQIICMDDVYGGTNRYFRQVASEFGLKISFVDCSKIKLLEAAITPETKLVWIETPTNPTQKVIDIEGCAHIVHKHGDIILVVDNTFMSPYFQRPLALGADISMYSATKYMNGHSDVVMGLVSVNCESLHNRLRFLQNSLGAVPSPIDCYLCNRGLKTLHVRMEKHFKNGMAVAQFLESNPWVEKVIYPGLPSHPQHELVKRQCTGCTGMVTFYIKGTLQHAEIFLKNLKLFTLAESLGGFESLAELPAIMTHASVLKNDRDVLGISDTLIRLSVGLEDEEDLLEDLDQALKAAHPPSGSHS
notes: human cystathionine γ-lyase (CSE) with C70S; TEV and 3C protease recognition sites follow the His6 tag; also called C70S CSE; source: recombinant, pET-28b, site-directed mutagenesis of the WT vector, purified (HisTrap FF Crude, Superdex 200 SEC)
B3: human cystathionine γ-lyase C84S variant (enzyme, UniProt P32929 1-405, looked up)
chain: MQEKDASSQGFLPHFQHFATQAIHVGQDPEQWTSRAVVPPISLSTTFKQGAPGQHSGFEYSRSGNPTRNCLEKAVAALDGAKYSLAFASGLAATVTITHLLKAGDQIICMDDVYGGTNRYFRQVASEFGLKISFVDCSKIKLLEAAITPETKLVWIETPTNPTQKVIDIEGCAHIVHKHGDIILVVDNTFMSPYFQRPLALGADISMYSATKYMNGHSDVVMGLVSVNCESLHNRLRFLQNSLGAVPSPIDCYLCNRGLKTLHVRMEKHFKNGMAVAQFLESNPWVEKVIYPGLPSHPQHELVKRQCTGCTGMVTFYIKGTLQHAEIFLKNLKLFTLAESLGGFESLAELPAIMTHASVLKNDRDVLGISDTLIRLSVGLEDEEDLLEDLDQALKAAHPPSGSHS
notes: human cystathionine γ-lyase (CSE) with C84S; TEV and 3C protease recognition sites follow the His6 tag; also called C84S CSE; source: recombinant, pET-28b, site-directed mutagenesis of the WT vector, purified (HisTrap FF Crude, Superdex 200 SEC)
B4: human cystathionine γ-lyase C109S variant (enzyme, UniProt P32929 1-405, looked up)
chain: MQEKDASSQGFLPHFQHFATQAIHVGQDPEQWTSRAVVPPISLSTTFKQGAPGQHSGFEYSRSGNPTRNCLEKAVAALDGAKYCLAFASGLAATVTITHLLKAGDQIISMDDVYGGTNRYFRQVASEFGLKISFVDCSKIKLLEAAITPETKLVWIETPTNPTQKVIDIEGCAHIVHKHGDIILVVDNTFMSPYFQRPLALGADISMYSATKYMNGHSDVVMGLVSVNCESLHNRLRFLQNSLGAVPSPIDCYLCNRGLKTLHVRMEKHFKNGMAVAQFLESNPWVEKVIYPGLPSHPQHELVKRQCTGCTGMVTFYIKGTLQHAEIFLKNLKLFTLAESLGGFESLAELPAIMTHASVLKNDRDVLGISDTLIRLSVGLEDEEDLLEDLDQALKAAHPPSGSHS
notes: human cystathionine γ-lyase (CSE) with C109S; TEV and 3C protease recognition sites follow the His6 tag; also called C109S CSE; source: recombinant, pET-28b, site-directed mutagenesis of the WT vector, purified (HisTrap FF Crude, Superdex 200 SEC)
B5: human cystathionine γ-lyase C137S variant (enzyme, UniProt P32929 1-405, looked up)
chain: MQEKDASSQGFLPHFQHFATQAIHVGQDPEQWTSRAVVPPISLSTTFKQGAPGQHSGFEYSRSGNPTRNCLEKAVAALDGAKYCLAFASGLAATVTITHLLKAGDQIICMDDVYGGTNRYFRQVASEFGLKISFVDSSKIKLLEAAITPETKLVWIETPTNPTQKVIDIEGCAHIVHKHGDIILVVDNTFMSPYFQRPLALGADISMYSATKYMNGHSDVVMGLVSVNCESLHNRLRFLQNSLGAVPSPIDCYLCNRGLKTLHVRMEKHFKNGMAVAQFLESNPWVEKVIYPGLPSHPQHELVKRQCTGCTGMVTFYIKGTLQHAEIFLKNLKLFTLAESLGGFESLAELPAIMTHASVLKNDRDVLGISDTLIRLSVGLEDEEDLLEDLDQALKAAHPPSGSHS
notes: human cystathionine γ-lyase (CSE) with C137S; TEV and 3C protease recognition sites follow the His6 tag; also called C137S CSE; source: recombinant, pET-28b, site-directed mutagenesis of the WT vector, purified (HisTrap FF Crude, Superdex 200 SEC)
B6: human cystathionine γ-lyase C172S variant (enzyme, UniProt P32929 1-405, looked up)
chain: MQEKDASSQGFLPHFQHFATQAIHVGQDPEQWTSRAVVPPISLSTTFKQGAPGQHSGFEYSRSGNPTRNCLEKAVAALDGAKYCLAFASGLAATVTITHLLKAGDQIICMDDVYGGTNRYFRQVASEFGLKISFVDCSKIKLLEAAITPETKLVWIETPTNPTQKVIDIEGSAHIVHKHGDIILVVDNTFMSPYFQRPLALGADISMYSATKYMNGHSDVVMGLVSVNCESLHNRLRFLQNSLGAVPSPIDCYLCNRGLKTLHVRMEKHFKNGMAVAQFLESNPWVEKVIYPGLPSHPQHELVKRQCTGCTGMVTFYIKGTLQHAEIFLKNLKLFTLAESLGGFESLAELPAIMTHASVLKNDRDVLGISDTLIRLSVGLEDEEDLLEDLDQALKAAHPPSGSHS
notes: human cystathionine γ-lyase (CSE) with C172S; TEV and 3C protease recognition sites follow the His6 tag; also called C172S CSE; source: recombinant, pET-28b, site-directed mutagenesis of the WT vector, purified (HisTrap FF Crude, Superdex 200 SEC)
B7: human cystathionine γ-lyase C229S variant (enzyme, UniProt P32929 1-405, looked up)
chain: MQEKDASSQGFLPHFQHFATQAIHVGQDPEQWTSRAVVPPISLSTTFKQGAPGQHSGFEYSRSGNPTRNCLEKAVAALDGAKYCLAFASGLAATVTITHLLKAGDQIICMDDVYGGTNRYFRQVASEFGLKISFVDCSKIKLLEAAITPETKLVWIETPTNPTQKVIDIEGCAHIVHKHGDIILVVDNTFMSPYFQRPLALGADISMYSATKYMNGHSDVVMGLVSVNSESLHNRLRFLQNSLGAVPSPIDCYLCNRGLKTLHVRMEKHFKNGMAVAQFLESNPWVEKVIYPGLPSHPQHELVKRQCTGCTGMVTFYIKGTLQHAEIFLKNLKLFTLAESLGGFESLAELPAIMTHASVLKNDRDVLGISDTLIRLSVGLEDEEDLLEDLDQALKAAHPPSGSHS
notes: human cystathionine γ-lyase (CSE) with C229S; TEV and 3C protease recognition sites follow the His6 tag; also called C229S CSE; source: recombinant, pET-28b, site-directed mutagenesis of the WT vector, purified (HisTrap FF Crude, Superdex 200 SEC)
B8: human cystathionine γ-lyase C307S variant (enzyme, UniProt P32929 1-405, looked up)
chain: MQEKDASSQGFLPHFQHFATQAIHVGQDPEQWTSRAVVPPISLSTTFKQGAPGQHSGFEYSRSGNPTRNCLEKAVAALDGAKYCLAFASGLAATVTITHLLKAGDQIICMDDVYGGTNRYFRQVASEFGLKISFVDCSKIKLLEAAITPETKLVWIETPTNPTQKVIDIEGCAHIVHKHGDIILVVDNTFMSPYFQRPLALGADISMYSATKYMNGHSDVVMGLVSVNCESLHNRLRFLQNSLGAVPSPIDCYLCNRGLKTLHVRMEKHFKNGMAVAQFLESNPWVEKVIYPGLPSHPQHELVKRQSTGCTGMVTFYIKGTLQHAEIFLKNLKLFTLAESLGGFESLAELPAIMTHASVLKNDRDVLGISDTLIRLSVGLEDEEDLLEDLDQALKAAHPPSGSHS
notes: human cystathionine γ-lyase (CSE) with C307S; TEV and 3C protease recognition sites follow the His6 tag; also called C307S CSE; source: recombinant, pET-28b, site-directed mutagenesis of the WT vector, purified (HisTrap FF Crude, Superdex 200 SEC)
B9: human cystathionine γ-lyase C310S variant (enzyme, UniProt P32929 1-405, looked up)
chain: MQEKDASSQGFLPHFQHFATQAIHVGQDPEQWTSRAVVPPISLSTTFKQGAPGQHSGFEYSRSGNPTRNCLEKAVAALDGAKYCLAFASGLAATVTITHLLKAGDQIICMDDVYGGTNRYFRQVASEFGLKISFVDCSKIKLLEAAITPETKLVWIETPTNPTQKVIDIEGCAHIVHKHGDIILVVDNTFMSPYFQRPLALGADISMYSATKYMNGHSDVVMGLVSVNCESLHNRLRFLQNSLGAVPSPIDCYLCNRGLKTLHVRMEKHFKNGMAVAQFLESNPWVEKVIYPGLPSHPQHELVKRQCTGSTGMVTFYIKGTLQHAEIFLKNLKLFTLAESLGGFESLAELPAIMTHASVLKNDRDVLGISDTLIRLSVGLEDEEDLLEDLDQALKAAHPPSGSHS
notes: human cystathionine γ-lyase (CSE) with C310S; TEV and 3C protease recognition sites follow the His6 tag; also called C310S CSE; source: recombinant, pET-28b, site-directed mutagenesis of the WT vector, purified (HisTrap FF Crude, Superdex 200 SEC)

Target: the molecule itself
Experiment: SEC; HiLoad 16/600 Superdex 200 in buffer B (20 mM Tris-HCl, pH 7.5, 150 mM NaCl, 10% glycerol, 100 μM TCEP, 20 μM PLP), after the HisTrap step of the purification

| Protein | stoichiometry N |
| --- | --- |
| B1 | 4 |
| B2 | 4 |
| B3 | 4 |
| B4 | 4 |
| B5 | 4 |
| B6 | 4 |
| B7 | 4 |
| B8 | 4 |
| B9 | 4 |
